From patent US20240287208A1 (CONCEPT TO MEDICINE BIOTECH, published 2024)

How the values were obtained:
[1] = molecular target: T1, human CD40 on the cell surface (human, UniProt P25942 21-277); assay: FACS, human dendritic cells, MFI
T1 construct: whole, on cells; also called cell surface CD40; Jurkat-CD40

[2] = molecular target: T1, human CD40 on the cell surface; assay: FACS, Jurkat cells overexpressing human CD40, PE anti-human IgG, MFI
Method: To evaluate the binding affinity of 5T4-CD40 bispecific antibodies to cell surface CD40, bispecific antibodies with formats of b 1 (42p155z2), b12 (42p155z2), b13 (42p155z2), b16 (42p155z2), b17 (42p155z2) and b18 (2p1130) were tested in Jurkat cell lines that overexpressed CD40 by FACS. A total number of 1×10⁵ Jurkat-CD40 cells in each well were incubated with 5-fold serially diluted antibodies starting from 100 nM for 30 minutes at 4° C. in FACS buffer. After wash by FACS buffer, PE conjugated-anti-human IgG antibody was added to each well and incubated at 4° C. for 30 minutes. After wash, MFI of PE was evaluated by MACSQuant Analyzer 16.

T1 sequence (P25942 21-277): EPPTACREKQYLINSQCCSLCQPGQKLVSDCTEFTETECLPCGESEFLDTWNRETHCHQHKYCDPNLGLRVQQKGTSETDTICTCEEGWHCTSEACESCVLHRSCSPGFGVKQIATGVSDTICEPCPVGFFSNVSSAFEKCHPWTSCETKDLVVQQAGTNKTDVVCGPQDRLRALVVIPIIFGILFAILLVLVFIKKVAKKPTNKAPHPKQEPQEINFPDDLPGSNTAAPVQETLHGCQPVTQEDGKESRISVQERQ

EC50 (read off the curve) [1]: ~700 pM
EC50 (read off the curve) [2]: ~500 pM
B1: b16 (42p155z2) anti-5T4/CD40 bispecific antibody (bispecific antibody, human IgG1, kappa, N297A)
heavy 1: EVQLQQSGPELVKPGASVKISCKASGYAFSSSWMNWVKQRPGKGLEWIGRIYREDGHTNYNGKFKGKATLTADKSSTTAYMQLTSLTSEDSAVYFCANGGAMDYWGQGTSVTVSSASTKGPSVFPLAPSSKSTSGGTAALGCLVKDYFPEPVTVSWNSGALTSGVHTFPAVLQSSGLYSLSSVVTVPSSSLGTQTYICNVNHKPSNTKVDKKVEPKSCDKTHTCPPCPAPELLGGPSVFLFPPKPKDTLMISRTPEVTCVVVDVSHEDPEVKFNWYVDGVEVHNAKTKPREEQYASTYRVVSVLTVLHQDWLNGKEYKCKVSNKALPAPIEKTISKAKGQPREPQVCTLPPSREEMTKNQVSLSCAVKGFYPSDIAVEWESNGQPENNYKTTPPVLDSDGSFFLVSKLTVDKSRWQQGNVFSCSVMHEALHNHYTQKSLSLSPGK
light: DIQMTQSTSSLSASLGDRVTISCRASQDISNYLNWYQQKPDGTVKLLIYYTSRLHSGVPSRFSGSGSGTDYSLTISNLEQEDIATYFCQQDNTLPWTFGGGTKLEIKRTVAAPSVFIFPPSDEQLKSGTASVVCLLNNFYPREAKVQWKVDNALQSGNSQESVTEQDSKDSTYSLSSTLTLSKADYEKHKVYACEVTHQGLSSPVTKSFNRGEC
heavy 2: not shown
notes: also called 1+2 b16 format; chimeric antibody b16 (42p155z2)
